Measurements reported in patent publication JP2017222678A (dated 2017).

T1: ヒトTFPI (human tissue factor pathway inhibitor; American Diagnostica) (human, UniProt P10646 29-304, limits assumed)
T1 construct: Coated on plates (ELISA) or amine-coupled to a CM5 chip (Biacore); also called h-TFPI; hTFPI
T1 sequence (looked up): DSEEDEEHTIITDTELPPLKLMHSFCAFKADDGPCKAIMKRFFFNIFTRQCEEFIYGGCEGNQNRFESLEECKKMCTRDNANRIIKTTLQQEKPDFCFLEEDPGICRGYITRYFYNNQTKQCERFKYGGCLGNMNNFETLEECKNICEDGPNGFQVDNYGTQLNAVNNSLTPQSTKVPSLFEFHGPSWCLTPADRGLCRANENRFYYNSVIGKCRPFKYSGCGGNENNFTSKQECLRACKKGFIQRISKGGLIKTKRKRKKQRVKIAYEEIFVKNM

B1: TP-2F9 (Fab, V domains shown)
VH: QVQLVESGGGLVQPGGSLRLSCAASGFTFYKYAMHWVRQAPGKGLEWVSGIQYDGSYTYYADSVKGRFTISRDNSKNTLYLQMNSLRAEDTAVYYCARYYCKCVDLWGQGTLVTVSS
VL: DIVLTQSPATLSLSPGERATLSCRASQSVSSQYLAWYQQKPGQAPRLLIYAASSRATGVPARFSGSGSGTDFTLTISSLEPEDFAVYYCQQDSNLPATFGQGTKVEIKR
notes: HuCAL Gold human Fab from E. coli TG1
B2: TP-3E1 (Fab, V domains shown)
VH: QVQLVESGGGLVQPGGSLRLSCAASGFTFSNYAMTWVRQAPGKGLEWVSVISSVGSNTYYADSVKGRFTISRDNSKNTLYLQMNSLRAEDTAVYYCARPTKAGRTWWWGPYMDVWGQGTLVTVSS
VL: DIELTQPPSVSVAPGQTARISCSGDNIGSYYAYWYQQKPGQAPVLVIYDDSNRPSGIPERFSGSNSGNTATLTISGTQAEDEADYYCQSYDSTGLLVFGGGTKLTVLG
notes: as for B1
B3: TP-2G2 (Fab, V domains shown)
VH: QVQLVESGGGLVQPGGSLRLSCAASGFTFSSYAMNWVRQAPGKGLEWVSAILSDGSSTSYADSVKGRFTISRDNSKNTLYLQMNSLRAEDTAVYYCARYPDWGWYTDVWGQGTLVTVSS
VL: DIELTQPPSVSVAPGQTARISCSGDNIRKFYVHWYQQKPGQAPVLVIYGTNKRPSGIPERFSGSNSGNTATLTISGTQAEDEADYYCQSYDSKFNTVFGGGTKLTVLG
notes: as for B1
B4: TP-3A4 (Fab, V domains shown)
VH: QVQLVESGGGLVQPGGSLRLSCAASGFTFSSYWMHWVRQAPGKGLEWVSSISYDSSNTYYADSVKGRFTISRDNSKNTLYLQMNSLRAEDTAVYYCARYGGMDYWGQGTLVTVSS
VL: DIELTQPPSVSVAPGQTARISCSGDNLRDKYASWYQQKPGQAPVLVIYSKSERPSGIPERFSGSNSGNTATLTISGTQAEDEADYYCSSYTLNPNLNYVFGGGTKLTVLG
notes: as for B1
B5: TP-3A2 (Fab, V domains shown)
VH: QVQLVESGGGLVQPGGSLRLSCAASGFTFSNYYLSWVRQAPGKGLEWVSGISYNGSSTNYADSVKGRFTISRDNSKNTLYLQMNSLRAEDTAVYYCARMWRYSLGADSWGQGTLVTVSS
VL: DIELTQPPSVSVAPGQTARISCSGDNIGSRYAYWYQQKPGQAPVVVIYDDSDRPSGIPERFSGSNSGNTATLTISGTQAEDEADYYCAAYTFYARTVFGGGTKLTVLG
notes: as for B1
B6: TP-3A3 (Fab, V domains shown)
VH: QVQLVESGGGLVQPGGSLRLSCAASGFTFNNNAISWVRQAPGKGLEWVSAINSSSSSTSYADSVKGRFTISRDNSKNTLYLQMNSLRAEDTAVYYCARGHHRGHSWASFIDYWGQGTLVTVSS
VL: DIELTQPPSVSVAPGQTARISCSGDNIGSKYVHWYQQKPGQAPVVVIYEDSDRPSGIPERFSGSNSGNTATLTISGTQAEDEADYYCQSWDKSEGYVFGGGTKLTVLG
notes: as for B1
B7: TP-3F2 (Fab, V domains shown)
VH: QVQLVESGGGLVQPGGSLRLSCAASGFTFSSYSMHWVRQAPGKGLEWVSGISYSSSFTYYADSVKGRFTISRDNSKNTLYLQMNSLRAEDTAVYYCARALGGGVDYWGQGTLVTVSS
VL: DIELTQPPSVSVAPGQTARISCSGDNLPSKSVYWYQQKPGQAPVLVIYGDNNRPSGIPERFSGSNSGNTATLTISGTQAEDEADYYCQSWTSRPMVVFGGGTKLTVLG
notes: as for B1
B8: TP-2E5 (Fab, V domains shown)
VH: QVQLQQSGPGLVKPSQTLSLTCAISGDSVSSNSAAWSWIRQSPGRGLEWLGMIFYRSKWNNDYAVSVKSRITINPDTSKNQFSLQLNSVTPEDTAVYYCARVNANGYYAYVDLWGQGTLVTVSS
VL: DIQMTQSPSSLSASVGDRVTITCRASQPIYNSLSWYQQKPGKAPKLLIYGVSNLQSGVPSRFSGSGSGTDFTLTISSLQPEDFAVYYCLQVDNLPITFGQGTKVEIKR
notes: as for B1
B9: TP-2G4 (Fab, V domains shown)
VH: QVQLVESGGGLVQPGGSLRLSCAASGFTFSSYAMTWVRQAPGKGLEWVSNISYSGSNTYYADSVKGRFTISRDNSKNTLYLQMNSLRAEDTAVYYCARVGYYYGFDYWGQGTLVTVSS
VL: DIELTQPPSVSVAPGQTARISCSGDALRKHYVYWYQQKPGQAPVLVIYGDNNRPSGIPERFSGSNSGNTATLTISGTQAEDEADYYCQSYDKPYPILVFGGGTKLTVLG
notes: as for B1
B10: TP-3B3 (Fab, V domains shown)
VH: QVQLVESGGGLVQPGGSLRLSCAASGFTFSSYGMHWVRQAPGKGLEWVSNISYMGSNTNYADSVKGRFTISRDNSKNTLYLQMNSLRAEDTAVYYCARGLFPGYFDYWGQGTLVTVSS
VL: DIELTQPASVSVAPGQTARISCSGDNLRSKYAHWYQQKPGQAPVLVIYGDNNRPSGIPERFSGSNSGNTATLTISGTQAEDEADYYCSAYAMGSSPVFGGGTKLTVLG
notes: as for B1
B11: TP-2A2 (Fab, V domains shown)
VH: QVQLVESGGGLVQPGGSLRLSCAASGFTFSNNAMNWVRQAPGKGLEWVSTISYDGSNTYYADSVKGRFTISRDNSKNTLYLQMNSLRAEDTAVYYCARQAGGWTYSYTDVWGQGTLVTVSS
VL: DIELTQPPSVSVAPGQTARISCSGDNIRTYYVHWYQQKPGQAPVVVIYGDSKRPSGIPERFSGSNSGNTATLTISGTQAEDEADYYCQSYDSEADSEVFGGGTKLTVLG
notes: as for B1
B12: TP-2G7 (Fab, V domains shown)
VH: QVQLVESGGGLVQPGGSLRLSCAASGFTFNSYAMSWVRQAPGKGLEWVSNISSNSSNTYYADSVKGRFTISRDNSKNTLYLQMNSLRAEDTAVYYCARKGGGEHGFFPSDIWGQGTLVTVSS
VL: DIELTQPPSVSVAPGQTARISCSGDNLGTYYVHWYQQKPGQAPVLVIYGDNNRPSGIPERFSGSNSGNTATLTISGTQAEDEADYYCQTYDSNNESIVFGGGTKLTVLG
notes: as for B1
B13: TP-2D7 (Fab, V domains shown)
VH: QVQLQQSGPGLVKPSQTLSLTCAISGDSVSSNSAAWGWIRQSPGRGLEWLGLIYYRSKWYNDYAVSVKSRITINPDTSKNQFSLQLNSVTPEDTAVYYCARFGDTNRNGTDVWGQGTLVTVSS
VL: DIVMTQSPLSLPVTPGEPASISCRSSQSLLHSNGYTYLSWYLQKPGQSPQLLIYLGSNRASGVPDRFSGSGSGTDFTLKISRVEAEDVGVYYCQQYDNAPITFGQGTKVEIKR
notes: as for B1
B14: TP-3C3 (Fab, V domains shown)
VH: QVQLQQSGPGLVKPSQTLSLTCAISGDSVSSNSAAWGWIRQSPGRGLEWLGVIYYRSKWYNDYAVSVKSRITINPDTSKNQFSLQLNSVTPEDTAVYYCARARAKKSGGFDYWGQGTLVTVSS
VL: DIQMTQSPSSLSASVGDRVTITCRASQSINPYLNWYQQKPGKAPKLLIYAASNLQSGVPSRFSGSGSGTDFTLTISSLQPEDFAVYYCQQLDNRSITFGQGTKVEIKR
notes: as for B1
B15: TP-2G9 (Fab, V domains shown)
VH: QVQLVESGGGLVQPGGSLRLSCAASGFTFNSYAMTWVRQAPGKGLEWVSAIKSDGSNTYYADSVKGRFTISRDNSKNTLYLQMNSLRAEDTAVYYCARNDSGWFDVWGQGTLVTVSS
VL: DIALTQPASVSGSPGQSITISCTGTSSDLGGFNTVSWYQQHPGKAPKLMIYSVSSRPSGVSNRFSGSKSGNTASLTISGLQAEDEADYYCQSYDLNNLVFGGGTKLTVLG
notes: as for B1
B16: TP-3C1 (Fab, V domains shown)
VH: QVQLVESGGGLVQPGGSLRLSCAASGFTFSSYSMHWVRQAPGKGLEWVSGISYSSSFTYYADSVKGRFTISRDNSKNTLYLQMNSLRAEDTAVYYCARALGGGVDYWGQGTLVTVSS
VL: DIALTQPASVSGSPGQSITISCTGTSSDLGGFNTVSWYQQHPGKAPKLMIYSVSSRPSGVSNRFSGSKSGNTASLTISGLQAEDEADYYCQSYDLNNLVFGGGTKLTVLG
notes: HuCAL Gold human Fab from E. coli TG1; Shares its VL entry with TP-2G9 and its VH entry with TP-3F2, as the legends print it
B17: TP-2B9 (Fab, V domains shown)
VH: QVQLQQSGPGLVKPSQTLSLTCAISGDSVSSNSAAWGWIRQSPGRGLEWLGMIYHRSKWYNDYAVSVKSRITINPDTSKNQFSLQLNSVTPEDTAVYYCARYSSIGHMDYWGQGTLVTVSS
VL: DIQMTQSPSSLSASVGDRVTITCRASQSIRSYLAWYQQKPGKAPKLLIYKASNLQSGVPSRFSGSGSGTDFTLTISSLQPEDFAVYYCHQYSDSPVTFGQGTKVEIKR
notes: as for B1
B18: TP-3C2 (Fab, V domains shown)
VH: QVQLQQSGPGLVKPSQTLSLTCAISGDSVSSSSAAWSWIRQSPGRGLEWLGMIYYRSKWYNHYAVSVKSRITINPDTSKNQFSLQLNSVTPEDTAVYYCARGGSGVMDVWGQGTLVTVSS
VL: DIQMTQSPSSLSASVGDRVTITCRASQSITNYLNWYQQKPGKAPKLLIYDVSNLQSGVPSRFSGSGSGTDFTLTISSLQPEDFAVYYCQQYSGYPLTFGQGTKVEIKR
notes: as for B1
B19: TP-2E3 (Fab, V domains shown)
VH: QVQLQQSGPGLVKPSQTLSLTCAISGDSVSSNSAAWGWIRQSPGRGLEWLGMIYYRSKWYNDYAVSVKSRITINPDTSKNQFSLQLNSVTPEDTAVYYCARVNQYTSSDYWGQGTLVTVSS
VL: DIALTQPASVSGSPGQSITISCTGTSSDIGGYNYVSWYQQHPGKAPKLMIYGVNYRPSGVSNRFSGSKSGNTASLTISGLQAEDEADYYCSSADKFTMSIVFGGGTKLTVLG
notes: as for B1
B20: TP-2G5 (Fab, V domains shown)
VH: QVQLQQSGPGLVKPSQTLSLTCAISGDSVSSNSAAWSWIRQSPGRGLEWLGFIYYRSKWYNDYAVSVKSRITINPDTSKNQFSLQLNSVTPEDTAVYYCARHNPDLGFDYWGQGTLVTVSS
VL: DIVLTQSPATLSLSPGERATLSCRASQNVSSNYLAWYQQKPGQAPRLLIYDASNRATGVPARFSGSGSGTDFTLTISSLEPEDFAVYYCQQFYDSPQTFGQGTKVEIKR
notes: as for B1
B21: TP-2H10 (Fab, V domains shown)
VH: QVQLQQSGPGLVKPSQTLSLTCAISGDSVSSNGAAWGWIRQSPGRGLEWLGFIYRRSKWYNSYAVSVKSRITINPDTSKNQFSLQLNSVTPEDTAVYYCARQDGMGGMDSWGQGTLVTVSS
VL: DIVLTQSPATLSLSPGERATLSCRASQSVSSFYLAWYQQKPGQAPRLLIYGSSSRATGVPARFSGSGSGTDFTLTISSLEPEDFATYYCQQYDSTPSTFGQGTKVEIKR
notes: as for B1
B22: TP-2C1 (Fab, V domains shown)
VH: QVQLVESGGGLVQPGGSLRLSCAASGFTFSPYVMSWVRQAPGKGLEWVSSISSSSSNTYYADSVKGRFTISRDNSKNTLYLQMNSLRAEDTAVYYCARGDSYMYDVWGQGTLVTVSS
VL: DIELTQPPSVSVAPGQTARISCSGDSIGSYYAHWYQQKPGQAPVLVIYYDSKRPSGIPERFSGSNSGNTATLTISGTQAEDEADYYCQAYTGQSISRVFGGGTKLTVLG
notes: as for B1

Biological target: T1, ヒトTFPI (human tissue factor pathway …)
Test: ELISA, Fab in bacterial lysate on coated human TFPI

Binding result, binds:
B1, B2, B3, B4, B5, B6, B7, B8, B9, B10, B11, B12, B13, B14, B15, B16, B17, B18, B19, B20, B21, B22
